# Laboratory results as given in paper PMC12692543.
# Legend:
# [1] = biological target: rhFrizzled-4/FC Chimera (human) (UniProt Q9ULV1); experiment: ELISA; rhFrizzled-4/Fc coated on a 96-well plate overnight; Norrin preparations as extracted from bacteria, BEFORE refolding, serially diluted (0.8–500 ng/mL) in 1% BSA or casein in PBS, 2 h; detected with biotinylated Norrin antibody and streptavidin–HRP; result as percent of a comparison control (R&D Systems Norrin)
# [2] = biological target: rhFrizzled-4/FC Chimera (human) (UniProt Q9ULV1); experiment: ELISA; rhFrizzled-4/Fc coated on a 96-well plate overnight; Norrin preparations AFTER denaturation and refolding with disulfide reshuffling (GSH/GSSG, 1 M arginine), serially diluted (0.8–500 ng/mL) in 1% BSA or casein in PBS, 2 h; detected with biotinylated Norrin antibody and streptavidin–HRP; result as percent of a comparison control (R&D Systems Norrin)
percent of expected binding activity relative to comparison control (R&D Systems Norrin) [1],percent of expected binding activity relative to comparison control (R&D Systems Norrin) [2],Substance
7%,94%,"MBP-linker-Norrin^K86P (intact, uncut fusion protein from plasmid construct Nor-w-Linker) (from UniProt Q00604 25-133)"
14%,101%,Norrin^K86P released from MBP-linker-Norrin by HRV3C protease (from UniProt Q00604 25-133) (natural protein)
